{
  "source": "the DeepSol protein solubility set",
  "data": [
    {"assay": "soluble on expression in E. coli; label from the status in PepcDB or PDB records", "values": [
      {"sequence": "MDQVVVFQKMFEQVRKEQNFSWFYSELKHHRIAHYIYYLATDNIRIITHDDTVLLLRGTRNLLKVSTTKNPAKIKEAALLHICGKSTFREYCSTLAGAGVFRWVTDVNHNKRSYYAIDNTLLYIEDVENNKPLI", "soluble on expression in E. coli": "not soluble"},
      {"sequence": "MAKWGQGDPRWIVAEREDGTNVNNWHWTARDATIWSKGKLRELLVGIAMENEAGRCEISELKQVEGEASCNSRKGKLIFFYEWNIKLAWKGTVKESGAKHKGLIEIPSLSEENEINDTEVNVSKKKGDGEILKDLMRTTGTAKVREALGEYLKALKTEFTTGMILPTKAVATQELTLQRKLNENKLQASPVALGVRIPTVALHLTELFDTTVEQLYSIFTVKELVQKFSKSPAVLEAERGGKFQMFDGNISGEYVELVTNRKIIMKWRCRNWPEALGFFPRTLCNS", "soluble on expression in E. coli": "not soluble"},
      {"sequence": "MGHHHHHHSHMGRGSGTFERLLDKATSQLLLETDWESILQICDLIRQGDTQAKYAVNSIKKKVNDKNPHVALYALEVMESVVKNCGQTVHDEVANKQTMEELKDLLKRQVEVNVRNKILYLIQAWAHAFRNEPKYKVVQDTYQIMKVEGHVFPEFKESDAMFAAERAPDWVDAEECHRCRVQFGVMTRKHHCRACGQIFCGKCSSKYSTIPKFGIEKEVRVCEPCYEQLNRKAEGK", "soluble on expression in E. coli": "soluble"},
      {"sequence": "SMQEKREELRMRSENQAMNIVLQRQYDQYRLSIDNIELLRREFHDLKHYMIAIRSEQDPKKKEQYLLEMEEAIHTQEALTNTGNSVLDVVLTTKSTYCMQKHITFTCMADGKLISFMHVKDICSIFGNALDNAIECVSQFDDPEKRLITLSMYQKNQLLMIQCENYTETSLSLKPDQLPTTTKQNAGYHGYGLKSIQQAARKYGGSMTLHAEDNWFTLQVLIPVES", "soluble on expression in E. coli": "not soluble"},
      {"sequence": "MAHHHHHHMDTDKIKKRINAYNQDGIRNSALAIILCHRYEYPHLLLLQNIESQTYHLLSGKYKSWEKPREVLKKKLQKYVNQIRDMHFGTSHFNTEEKETEDPIEIGEFLGEWWKTQFNSVYLPYLPAHITRPKEYIRLYQVTLTSRCIFHLPPGFTLKALPLFDLSTCGVAIGGLTSVLSRFKLHCMVPVEE", "soluble on expression in E. coli": "not soluble"},
      {"sequence": "MGSDKIHHHHHHMNDENIQSSNYQPFPSFDDWKQIEVSLLDVIESSRHFSDLKDSTDRSALDAALERAKRAAAVDTNAIEGIFQTDRGFTHTVATQVGAWEQQMAMKGKHVKPAFDDTLEGFEYVLDAVTGRTPISQQWIRNLHAVILRSQESHEVFTAVGVQNQALQKGEYKTQPNSPQRSDGSVHAYAPVEDTPAEMARFISELESKEFLAAEKVIQAAYAHYAFVCIHPFADGNGRVARALASVFLYKDPGVPLVIYQDQRRDYIHALEAADKNNPLLLIRFFAERVTDTINSIIVDLTTPIAGKSGSAKLSDALRPTRVLPELHDAAHRLQESLFTEIRSRLDEEGKRNGLEFLLQRIFIGSPFNLPEGYNAFPDSYCLTLAFNSNSPKQIFHPLSIVIAARDGKRASSDLVAATSIGYNFHAYGREVEPVVTESFRERVKIYADGIVDHFLTELAKKFQQN", "soluble on expression in E. coli": "not soluble"},
      {"sequence": "MFVRVMKIAQNKKIVTVYPTTTIRKALMTMNENKYRRLPVVNAGNNKVVGIITSMDIVDFMGGGSKYNLIREKHERNFLAAINEPVREIMEENVITLKENADIDEAIETFLTKNVGGAPIVNDENQLISLITERDVIRALLDKIDENEVIDDYITRDVIVATPGERLKDVARTMVRNGFRRLPVVSEGRLVGIITSTDFIKLLGSDWAFNHMQTGNVREITNVRMEEIMKRDVITAKEGDKLKKIAEIMVTNDIGALPVVDENLRIKGIITEKDVLKYFA", "soluble on expression in E. coli": "soluble"},
      {"sequence": "MSASVSDPYEQMPAAPTDDDLEDKPEADKKALLNQVFKSLKRAQDLFYHDYAQPPPMPEENDSLIRSMKRKHEYGNVIKKVEEMKVRRENEMLALPTSQPMHGTGSVIASAGTPLAITDGSGKLVNQQQGSAKSGTLLPLVPLGNSSKGEDNTTRSLLPSKAPMMMKPKWHAPWKLYRVASGHTGWVRAVDVEPGNQWFASGGADRIIKIWDLASGQLKLSLTGHISSVRAVKVSPRHPFLFSGGEDKQVKCWDLEYNKVIRHYHGHLSAVQALSVHPSLDVLVTCARDSTARVWDMRTKAQVHCFAGHTNTVADVVCQSVDPQVITASHDATVRLWDLAAGRSMCTLTHHKKSVRALTIHPRLNMFASASPDNIKQWKLPKGEFMQNLSGHNAIINTLSSNDDGVVVSGADNGSLCFWDWRSGFCFQKIQTKPQPGSIESEAGIYASCFDKTGLRLITAEADKTIKMYKEDDEATEESHPIVWRPEIVKKKAY", "soluble on expression in E. coli": "not soluble"},
      {"sequence": "SERCDDWGLDTMRQIQVFEDEPARIKCPLFEHFLKFNYSTAHSAGLTLIWYWTRQDRDLEEPINFRLPENRISKEKDVLWFRPTLLNDTGNYTCMLRNTTYCSKVAFPLEVVQKDSCFNSPMKLPVHKLYIEYGIQRITCPNVDGYFPSSVKPTITWYMGCYKIQNFNNVIPEGMNLSFLIALISNNGNYTCVVTYPENGRTFHLTRTLTVKVVGSPKNAVPPVIHSPNDHVVYEKEPGEELLIPCTVYFSFLMDSRNEVWWTIDGKKPDDITIDVTINESISHSRTEDETRTQILSIKKVTSEDLKRSYVCHARSAKGEVAKAAKVKQKGNRCGQ", "soluble on expression in E. coli": "soluble"},
      {"sequence": "MGLCMMRTLQSAPSSPLAMPEIQFCLLPDACRPLLGKFYREHQSSMRAASKGQAWVAKQEEIIGALCLTPVADGHWLTGLFVAPPLRGNAVAQRLIDAALLPLSGPVWLFCHPDLQGFYRLAGFETAQRLPQALGERLMRYSRSKPLVALHREA", "soluble on expression in E. coli": "not soluble"},
      {"sequence": "MKKWLPAFLFLSLSGCNDALAANQSTMFYSFNDNIYRPQLSVKVTDIVQFIVDINSASSTATLSYVACNGFTWTHGLYWSEYFAWLVVPKHVSYNGYNIYLELQSRGSFSLDAEDNDNYYLTKGFAWDEANTSGQTCFNIGEKRSLAWSFGGVTLNARLPVDLPKGDYTFPVKFLRGIQRNNYDYIGGRYKIPSSLMKTFPFNGTLNFSIKNTGGCRPSAQSLEINHGDLSINSANNHYAAQTLSVSCDVPTNIRFFLLSNTNPAYSHGQQFSVGLGHGWDSIISINGVDTGETTMRWYRAGTQNLTTGSRLYGESSKIQPGVLSGSATLLMILP", "soluble on expression in E. coli": "soluble"},
      {"sequence": "MSLSGETELTFWTFSGLHEQFYVEMVKEWNKKYPDRKIKLNTVVYPYGQMHDNLSISLIAGEGVPDIADVELARFSNFLKGSDIPLADLTPLIEKDRDKFVEARLTLYSKNGKLYGLDTHVGTTVMFYNMDVMKKAGVNPDDIKTWDDYHKAGQKVRKVTGKPMGTVETNDSATFLSMISQQNSGYFDKNGKLILNNDTNVKTLQYLKDMINDKTMIPAPGGGHHSEEYYGFMNQGGAASVLMPIWYMGRFIDYMPDLKGKIAIRPLPAWKEGGDRSAGLGGTATVVPKQSKHVELAKEFLAFAKGSEEGNKKLWSVLGFDPLRWDVWSSKELKEKNKYTDYFQNGTGIFSVLLDIKDEINPIYLHEDFAKASDLVNRSVLFDALKSQQKTPKQALDRAAGELKQKEGHHHHHH", "soluble on expression in E. coli": "soluble"},
      {"sequence": "MEQIGAALQQTLEPDAAIRKRGEEALRSLQSNPGYIIQILQLVVNEQQQIAPQIRIAAAVALKNFVKRNWGPAPEVEMGQEDEEQFRSMLLEAMFNTKSNVQEILSNALYLIAQRDFPEKWPDLVPYLSKFLNGADLNHLVASLASMEQIFRKFRFESKSAELWKELKKCLLSTQEPLTLLLRNMMEVGQRKDQLGADEIAQWLRVLLLIAKVYHSLCSQEIPEYFEDHLKDWMPHFLHLVQIDAPTQTSNSGEPTTLDELKHEICEIFTLYSQRYEEEISEFVPDIILAVWNLLKSTGPDTRYDTMVCAALEFLSMVSQRQYYEGHFTGEGVLKTLAENVCVQNLLLRQQDMELFEDEPLDYMKRDIEGTDVGTRRRGAIDLARGLCRRFEAQMLPCLGEIVQNLLGSGDWIKIDIVYSLITAIAVKTETAKSGVTATNPLVDINDFFITQVATHLNADVNQTPILKADALKFAVTFRKQLAPEHLMTAIKSADALLSSNTPILHKYAAYAIEKILLADSNKIFSAQNLPVSSILQNLVTAFDKDAKAQNSPYLIKAILRIIVILDDDTIRHADAIAVKLAQLVESATKNPADSVHTHFLFETICVLITKTRTIGASLDAQLLPLIEVIFREDLEDLIPYALQITGVLVSSCIARNSSIDQFSPFLPFLLSERLWARSANVPAALSVLEVILSVNAQRVVSENSGLILSHLARLLGSKTLDQYGFQLAATILPSIEHFEGSAMTFVLNTMFRRVQSSKTPKFMKLFIVFLCRFTIARSAQDLVQSCENIQTGMFGMLIEKVVCIDLPGLKQTTTGPEKRIIAIGMGNLLADVTQQLVGQYGILSYEVAMLLEAASASDRAVLSPEEEQASMYNAEGEFVNPFCRLSYAPKQPPVAANIANHKAYFAQAVLVRGPGNCPETLRSVPPEIVTYLQSIQQ", "soluble on expression in E. coli": "not soluble"},
      {"sequence": "MNQIAIQETIQRLINQQVVPGVAWGTITEDSLSEQYTGFLGNTGPFARQKISSASLYDLASLTKVIGTTNRMLQLIDTNQLTFSTTVGEILPDYQGLSCSIGELLLHQSGLPADVVDKKNVTKKSLQEIILTHSLSERGKTTYSDLGYYLLGEIIQVLDRCSLEESFQTYVFQPMNLQHTSFTVSDFAQAVPTEITKQRGVIQGVVHDSKAYQLKAPIGSAGLFATLPDLLTFVQCFMNNRYPSGKPLFSEKMFTALWSMNQGGRTFGWEVKKTQAGADYLYHTGFTGTAIGMKKETKEALILLTNRIHPTREERGFLKARTKIYQQYF", "soluble on expression in E. coli": "not soluble"},
      {"sequence": "MVKIVELQEKESLYYCTKDEDHFFDRKAFGLKGEKVQKIAVAFANADGGEILVGIADDKDEVIPEKRWQGQESTEAYNSVIQALSELVPSVDFRFDFLTRVNESRNYVLRVKINKGLSVHETAKKKIFLRQGAQSLPVTAPIKILELTHAKGIISEEDSLVNSASIDELDSSIELTKFLSELPIRAPDPITFLLKEKLVDSETWAPTVAAVLLFAENPSAELPKQCAIRIVRYDTDGEDIDRDALTEDNIAIEGSLYQQIQDAYSKIELFLSKNKVWKVEGLVETKYPKETIWEILVNTVIHRDYAISDNVLVSIFNNRIEFKSPGRFTGFVTAENILENRCSRNSKIVRILSKYKDSPNKDLGEGMNTAFQRMRSMGLRDPEILEDGNYVKIILRHSSNDDPETLIMKFIESNGEINNRQARDLTGIDRTEKVTYQFSKLRDKGLIQRKDSSTGLKSSWIAVLEHHHHHH", "soluble on expression in E. coli": "not soluble"},
      {"sequence": "MDLNFDLYMNDVVEQARNEIEHAGYQQLTSAEDVDQVLQQKGTSLVMVNSVCGCAGGIARPAAAHALHYDKLPQRLVTVFAGQDKEATQQAREYFEGYAPSSPSFALIKDGKITEMIERHQIEGHDVMDVINQLQALFDKYCEER", "soluble on expression in E. coli": "not soluble"},
      {"sequence": "MLIQKAYKYRLYPTDQQAQRLRQLCGCARFVWNYALNETLSIHDAGGKIPSAFDLNKRLTGWKKLPELAFLSEGYTDNLQQKLKDLRSAWDRCFDKSLTAEKPVFKKKTKGCDSIRFVNFSKYCGLDYGRVKLPSGLGWVKFRQSRKIEGVIKNCTISQHAGHWYVSFQVELAVTDPIHASTSAIGLDAGITKLATLSDGTVFEPVNSLKKNQDKLARLQRRLARMVKFSANWKKQKAKISRFHSHIANIRRDYLHKTTTTISKNHAMIVIEDLKVSNMSKSAAGTVDQPGRNVAAKSGLNRAILDQGWAEMRRQLEYKQAWRGGDVLAINPAYTSQKCACCGHTSKNNRRTQASFICTACGYTANADVNGARNILTAGFEVMAAGQILPSVRKGRARKAA", "soluble on expression in E. coli": "not soluble"},
      {"sequence": "MSERPDLVDPLPEDEPLPGENIPDTPEGDDPLDPDTQNEVEDPRR", "soluble on expression in E. coli": "not soluble"},
      {"sequence": "MERYPPIADHGLVGDLQTAALVSSQGVIDWFAAPRFDSPSIFASLLDHDGGGHFLLAPEHPEGTWRQLYYPDTGVVVTRFMSPDGVGEIIDYMPVLPGPTASDRHSLVRIVRSVRGTVRFRLVCRPRFDYLEHHHHHH", "soluble on expression in E. coli": "not soluble"},
      {"sequence": "MLGMTHFSQQDNFSVAARVLGALFYYAPESAEAAPLVAVLTSDGWETQWPLPEASLAPLVTAFQTQCEETHAQAWQRLFVGPWALPSPPWGSVWLDRESVLFGDSTLALRQWMREKGIQFEMKQNEPEDHFGSLLLMAAWLAENGRQTECEELLAWHLFPWSTRFLDVFIEKAEHPFYRALGELARLTLAQWQSQLLIPVAVKPLFR", "soluble on expression in E. coli": "not soluble"}
    ]}
  ]
}
